# Experimental data published in publication PMC9482650, “Quantitative fragmentomics allow affinity mapping of interactomes” (Nature Communications, 2022).
# Substitutions are numbered along the chain they refer to.
# T1: LIN7A, O14910
# T1 sequence (O14910 103-200, limits assumed, looked up): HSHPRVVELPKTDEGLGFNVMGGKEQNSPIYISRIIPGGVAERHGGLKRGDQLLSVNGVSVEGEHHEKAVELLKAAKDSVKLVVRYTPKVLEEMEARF
# T2: GRIP1_2, Q9Y3R0
# T2 sequence (Q9Y3R0 145-248, limits assumed, looked up): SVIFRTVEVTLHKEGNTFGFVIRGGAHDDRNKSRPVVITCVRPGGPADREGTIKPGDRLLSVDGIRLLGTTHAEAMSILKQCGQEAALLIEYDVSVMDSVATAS
# T3: MPP7, Q5T2T1
# T3 sequence (Q5T2T1 134-230, limits assumed, looked up): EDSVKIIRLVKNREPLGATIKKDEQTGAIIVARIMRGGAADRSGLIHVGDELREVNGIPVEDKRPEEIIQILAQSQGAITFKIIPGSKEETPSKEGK
# T4: ARHGEF11, O15085
# T4 sequence (O15085 42-136, limits assumed, looked up): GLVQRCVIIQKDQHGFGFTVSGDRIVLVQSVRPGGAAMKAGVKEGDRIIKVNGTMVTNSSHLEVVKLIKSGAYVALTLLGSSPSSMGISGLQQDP
# T5: APBA1_2, Q02410
# T5 sequence (Q02410 742-832, limits assumed, looked up): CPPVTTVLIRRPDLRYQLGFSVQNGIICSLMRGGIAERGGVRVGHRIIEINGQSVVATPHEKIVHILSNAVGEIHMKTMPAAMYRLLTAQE
# T6: LNX2_2, Q8N448
# T6 sequence (Q8N448 334-432, limits assumed, looked up): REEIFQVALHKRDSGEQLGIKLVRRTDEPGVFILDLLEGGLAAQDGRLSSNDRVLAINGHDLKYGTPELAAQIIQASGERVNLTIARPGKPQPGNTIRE
# T7: PTPN13_1, Q12923
# T7 sequence (Q12923 1088-1188, limits assumed, looked up): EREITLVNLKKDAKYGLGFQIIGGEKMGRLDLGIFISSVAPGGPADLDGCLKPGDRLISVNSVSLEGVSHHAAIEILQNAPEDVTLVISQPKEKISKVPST
# T8: APBA2_2, Q99767
# T8 sequence (Q99767 654-744, limits assumed, looked up): T5 sequence (Q02410 742-832, limits assumed, looked up) with R10K, R15K, P59A, H65Q, I66A, A70S, Y84F, A89G
# T9: SNTG1, Q9NSN8
# T9 sequence (Q9NSN8 52-150, limits assumed, looked up): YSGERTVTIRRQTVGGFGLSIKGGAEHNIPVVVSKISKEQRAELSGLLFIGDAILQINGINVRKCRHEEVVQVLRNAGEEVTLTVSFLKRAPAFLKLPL
# T10: SYNJ2BP, P57105
# T10 sequence (P57105 8-110, limits assumed, looked up): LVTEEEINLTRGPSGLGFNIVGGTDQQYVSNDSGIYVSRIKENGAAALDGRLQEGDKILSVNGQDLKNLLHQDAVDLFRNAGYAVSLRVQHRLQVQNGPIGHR
# T11: NHERF3_3, Q5T2W1
# T11 sequence (Q5T2W1 238-333, limits assumed, looked up): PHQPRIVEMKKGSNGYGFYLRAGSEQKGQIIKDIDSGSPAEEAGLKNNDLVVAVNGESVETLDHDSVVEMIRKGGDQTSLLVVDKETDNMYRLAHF
# T12: SNTA1, Q13424
# T12 sequence (Q13424 82-180, limits assumed, looked up): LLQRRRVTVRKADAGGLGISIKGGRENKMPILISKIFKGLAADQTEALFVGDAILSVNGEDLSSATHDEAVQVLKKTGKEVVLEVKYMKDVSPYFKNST
# Molecular target: PDZRN4_1, Q6ZMN7
# Experiment: holdup assay
# Parameters: key: below the threshold = too weak to quantify, mostly under pKd 3.1 to 4
# Settings: plain residues with an end cap or a label only (N-terminal biotin on a linker: ahx)
# PDZRN4_1, Q6ZMN7, sequence (Q6ZMN7 213-318): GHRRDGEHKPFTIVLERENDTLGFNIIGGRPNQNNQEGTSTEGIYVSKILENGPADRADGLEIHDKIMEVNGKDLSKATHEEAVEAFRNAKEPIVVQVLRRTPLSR
row,Binder,pKd
1,"SDSSGQEYSL [KCTD3, Q9Y597]",below the threshold

# Molecular target: PICK1, Q9NRD5
# Experiment: holdup assay
# Parameters: key: below the threshold = too weak to quantify, mostly under pKd 3.1 to 4
# Settings: plain residues with an end cap or a label only (N-terminal biotin on a linker: ahx)
# PICK1, Q9NRD5, sequence (Q9NRD5 17-115): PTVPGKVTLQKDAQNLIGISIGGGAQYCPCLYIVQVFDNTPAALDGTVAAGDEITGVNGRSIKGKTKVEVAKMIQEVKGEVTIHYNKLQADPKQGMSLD
row,Binder,pKd
1,"SDSSGQEYSL [KCTD3, Q9Y597]",below the threshold

# Molecular target: T1, LIN7A, O14910
# Experiment: holdup assay
# Parameters: key: below the threshold = too weak to quantify, mostly under pKd 3.1 to 4
# Settings: plain residues with an end cap or a label only (N-terminal biotin on a linker: ahx)
row,Binder,pKd
1,"SDSSGQEYSL [KCTD3, Q9Y597]",below the threshold

# Molecular target: T2, GRIP1_2, Q9Y3R0
# Experiment: holdup assay
# Parameters: key: below the threshold = too weak to quantify, mostly under pKd 3.1 to 4
# Settings: plain residues with an end cap or a label only (N-terminal biotin on a linker: ahx)
row,Binder,pKd
1,"SDSSGQEYSL [KCTD3, Q9Y597]",below the threshold

# Molecular target: Inadl_8, Q8NI35
# Experiment: holdup assay
# Parameters: key: below the threshold = too weak to quantify, mostly under pKd 3.1 to 4
# Settings: plain residues with an end cap or a label only (N-terminal biotin on a linker: ahx)
# Inadl_8, Q8NI35, sequence (Q8NI35 1425-1530): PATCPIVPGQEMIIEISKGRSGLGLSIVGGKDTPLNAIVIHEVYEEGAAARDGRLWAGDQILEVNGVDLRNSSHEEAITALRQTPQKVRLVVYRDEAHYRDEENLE
row,Binder,pKd
1,"SDSSGQEYSL [KCTD3, Q9Y597]",below the threshold

# Molecular target: DLG4_2, P78352
# Experiment: holdup assay
# Parameters: key: below the threshold = too weak to quantify, mostly under pKd 3.1 to 4
# Settings: plain residues with an end cap or a label only (N-terminal biotin on a linker: ahx)
# DLG4_2, P78352, sequence (P78352 155-259): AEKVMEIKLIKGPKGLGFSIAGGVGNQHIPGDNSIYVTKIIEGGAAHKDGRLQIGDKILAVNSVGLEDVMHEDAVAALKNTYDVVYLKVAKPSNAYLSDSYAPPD
row,Binder,pKd
1,"SDSSGQEYSL [KCTD3, Q9Y597]",below the threshold

# Molecular target: T3, MPP7, Q5T2T1
# Experiment: holdup assay
# Parameters: key: below the threshold = too weak to quantify, mostly under pKd 3.1 to 4
# Settings: plain residues with an end cap or a label only (N-terminal biotin on a linker: ahx)
row,Binder,pKd
1,"SDSSGQEYSL [KCTD3, Q9Y597]",4.1

# Molecular target: Inadl_4, Q8NI35
# Experiment: holdup assay
# Parameters: key: below the threshold = too weak to quantify, mostly under pKd 3.1 to 4
# Settings: plain residues with an end cap or a label only (N-terminal biotin on a linker: ahx)
# Inadl_4, Q8NI35, sequence (Q8NI35 547-651): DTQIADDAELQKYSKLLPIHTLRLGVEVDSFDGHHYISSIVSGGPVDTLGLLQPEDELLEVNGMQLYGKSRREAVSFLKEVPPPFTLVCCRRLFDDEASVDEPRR
row,Binder,pKd
1,"SDSSGQEYSL [KCTD3, Q9Y597]",below the threshold

# Molecular target: T4, ARHGEF11, O15085
# Experiment: holdup assay
# Parameters: key: below the threshold = too weak to quantify, mostly under pKd 3.1 to 4
# Settings: plain residues with an end cap or a label only (N-terminal biotin on a linker: ahx)
row,Binder,pKd
1,"SDSSGQEYSL [KCTD3, Q9Y597]",3.98

# Molecular target: NOS1, P29475
# Experiment: holdup assay
# Parameters: key: below the threshold = too weak to quantify, mostly under pKd 3.1 to 4
# Settings: plain residues with an end cap or a label only (N-terminal biotin on a linker: ahx)
# NOS1, P29475, sequence (P29475 9-101): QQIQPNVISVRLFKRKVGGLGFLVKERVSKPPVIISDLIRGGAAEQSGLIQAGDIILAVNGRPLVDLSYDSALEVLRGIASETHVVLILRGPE
row,Binder,pKd
1,"SDSSGQEYSL [KCTD3, Q9Y597]",3.61

# Molecular target: T5, APBA1_2, Q02410
# Experiment: holdup assay
# Parameters: key: below the threshold = too weak to quantify, mostly under pKd 3.1 to 4
# Settings: plain residues with an end cap or a label only (N-terminal biotin on a linker: ahx)
row,Binder,pKd
1,"SDSSGQEYSL [KCTD3, Q9Y597]",3.65

# Molecular target: SNX27, Q96L92
# Experiment: holdup assay
# Parameters: key: below the threshold = too weak to quantify, mostly under pKd 3.1 to 4
# Settings: plain residues with an end cap or a label only (N-terminal biotin on a linker: ahx)
row,Binder,pKd
1,"SDSSGQEYSL [KCTD3, Q9Y597]",below the threshold

# Molecular target: IL16_4, Q14005
# Experiment: holdup assay
# Parameters: key: below the threshold = too weak to quantify, mostly under pKd 3.1 to 4
# Settings: plain residues with an end cap or a label only (N-terminal biotin on a linker: ahx)
# IL16_4, Q14005, sequence (Q14005 1229-1329): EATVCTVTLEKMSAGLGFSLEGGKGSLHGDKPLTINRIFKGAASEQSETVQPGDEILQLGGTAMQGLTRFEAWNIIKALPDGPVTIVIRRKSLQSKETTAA
row,Binder,pKd
1,"SDSSGQEYSL [KCTD3, Q9Y597]",below the threshold

# Molecular target: T6, LNX2_2, Q8N448
# Experiment: holdup assay
# Parameters: key: below the threshold = too weak to quantify, mostly under pKd 3.1 to 4
# Settings: plain residues with an end cap or a label only (N-terminal biotin on a linker: ahx)
row,Binder,pKd
1,"SDSSGQEYSL [KCTD3, Q9Y597]",below the threshold

# Molecular target: T7, PTPN13_1, Q12923
# Experiment: holdup assay
# Parameters: key: below the threshold = too weak to quantify, mostly under pKd 3.1 to 4
# Settings: plain residues with an end cap or a label only (N-terminal biotin on a linker: ahx)
row,Binder,pKd
1,"SDSSGQEYSL [KCTD3, Q9Y597]",below the threshold

# Molecular target: PARD3_3, Q8TEW0
# Experiment: holdup assay
# Parameters: key: below the threshold = too weak to quantify, mostly under pKd 3.1 to 4
# Settings: plain residues with an end cap or a label only (N-terminal biotin on a linker: ahx)
# PARD3_3, Q8TEW0, sequence (Q8TEW0 582-685): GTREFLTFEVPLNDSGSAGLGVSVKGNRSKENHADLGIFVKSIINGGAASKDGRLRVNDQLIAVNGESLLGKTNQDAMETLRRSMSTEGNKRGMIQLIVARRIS
row,Binder,pKd
1,"SDSSGQEYSL [KCTD3, Q9Y597]",4.58

# Molecular target: MAGI1_1, Q96QZ7
# Experiment: holdup assay
# Parameters: key: below the threshold = too weak to quantify, mostly under pKd 3.1 to 4
# Settings: plain residues with an end cap or a label only (N-terminal biotin on a linker: ahx)
# MAGI1_1, Q96QZ7, sequence (Q96QZ7 1-106): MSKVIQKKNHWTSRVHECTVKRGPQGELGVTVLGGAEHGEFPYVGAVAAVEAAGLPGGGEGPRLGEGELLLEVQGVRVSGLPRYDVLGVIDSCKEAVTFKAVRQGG
row,Binder,pKd
1,"SDSSGQEYSL [KCTD3, Q9Y597]",below the threshold

# Molecular target: GRIP2_4, Q9C0E4
# Experiment: holdup assay
# Parameters: key: below the threshold = too weak to quantify, mostly under pKd 3.1 to 4
# Settings: plain residues with an end cap or a label only (N-terminal biotin on a linker: ahx)
# GRIP2_4, Q9C0E4, sequence (Q9C0E4 446-548): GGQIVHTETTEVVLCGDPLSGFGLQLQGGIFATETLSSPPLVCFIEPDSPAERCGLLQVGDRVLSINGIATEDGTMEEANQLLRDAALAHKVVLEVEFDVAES
row,Binder,pKd
1,"SDSSGQEYSL [KCTD3, Q9Y597]",below the threshold

# Molecular target: Inadl_2, Q8NI35
# Experiment: holdup assay
# Parameters: key: below the threshold = too weak to quantify, mostly under pKd 3.1 to 4
# Settings: plain residues with an end cap or a label only (N-terminal biotin on a linker: ahx)
# Inadl_2, Q8NI35, sequence (Q8NI35 238-335): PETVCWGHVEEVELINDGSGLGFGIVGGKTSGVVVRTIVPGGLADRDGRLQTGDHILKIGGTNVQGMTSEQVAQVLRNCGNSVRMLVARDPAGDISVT
row,Binder,pKd
1,"SDSSGQEYSL [KCTD3, Q9Y597]",below the threshold

# Molecular target: T8, APBA2_2, Q99767
# Experiment: holdup assay
# Parameters: key: below the threshold = too weak to quantify, mostly under pKd 3.1 to 4
# Settings: plain residues with an end cap or a label only (N-terminal biotin on a linker: ahx)
row,Binder,pKd
1,"SDSSGQEYSL [KCTD3, Q9Y597]",below the threshold

# Molecular target: T9, SNTG1, Q9NSN8
# Experiment: holdup assay
# Parameters: key: below the threshold = too weak to quantify, mostly under pKd 3.1 to 4
# Settings: plain residues with an end cap or a label only (N-terminal biotin on a linker: ahx)
row,Binder,pKd
1,"SDSSGQEYSL [KCTD3, Q9Y597]",below the threshold

# Molecular target: T10, SYNJ2BP, P57105
# Experiment: holdup assay
# Parameters: key: below the threshold = too weak to quantify, mostly under pKd 3.1 to 4
# Settings: plain residues with an end cap or a label only (N-terminal biotin on a linker: ahx)
row,Binder,pKd
1,"SDSSGQEYSL [KCTD3, Q9Y597]",below the threshold

# Molecular target: DLG4_1, P78352
# Experiment: holdup assay
# Parameters: key: below the threshold = too weak to quantify, mostly under pKd 3.1 to 4
# Settings: plain residues with an end cap or a label only (N-terminal biotin on a linker: ahx)
# DLG4_1, P78352, sequence (P78352 62-152): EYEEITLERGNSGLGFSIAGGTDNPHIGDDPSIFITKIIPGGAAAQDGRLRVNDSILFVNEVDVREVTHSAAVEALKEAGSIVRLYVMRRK
row,Binder,pKd
1,"SDSSGQEYSL [KCTD3, Q9Y597]",below the threshold

# Molecular target: T11, NHERF3_3, Q5T2W1
# Experiment: holdup assay
# Parameters: key: below the threshold = too weak to quantify, mostly under pKd 3.1 to 4
# Settings: plain residues with an end cap or a label only (N-terminal biotin on a linker: ahx)
row,Binder,pKd
1,"SDSSGQEYSL [KCTD3, Q9Y597]",below the threshold

# Molecular target: GIPC2, Q8TF65
# Experiment: holdup assay
# Parameters: key: below the threshold = too weak to quantify, mostly under pKd 3.1 to 4
# Settings: plain residues with an end cap or a label only (N-terminal biotin on a linker: ahx)
# GIPC2, Q8TF65, sequence (Q8TF65 112-203): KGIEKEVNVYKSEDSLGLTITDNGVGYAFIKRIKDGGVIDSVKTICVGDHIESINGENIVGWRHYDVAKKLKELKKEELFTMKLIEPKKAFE
row,Binder,pKd
1,"SDSSGQEYSL [KCTD3, Q9Y597]",3.64

# Molecular target: T12, SNTA1, Q13424
# Experiment: holdup assay
# Parameters: key: below the threshold = too weak to quantify, mostly under pKd 3.1 to 4
# Settings: plain residues with an end cap or a label only (N-terminal biotin on a linker: ahx)
row,Binder,pKd
1,"SDSSGQEYSL [KCTD3, Q9Y597]",below the threshold
